The text below walks through data of publication PMC2151542.

The target of the test is MthK channel (Methanobacterium thermoautotrophicum) (UniProt O27564). As to the kind of experiment: single-channel recording in planar lipid bilayers.

As to “charybdotoxin (from UniProt P13487 23-59) (peptide)”, the dissociation constant Kd was found to be 1 nM.
